Substitutions are numbered along the chain they refer to. Blank lines part the entries; values can stand above or below the binder they belong to.
Target: T1, Full-length human HER3 extracellular domain (ECD) (human, UniProt P21860 20-643)
T1 construct: also called human HER3 ECD; HER-3 ECD full length
Assay: BIACORE 3000 SPR, mAb captured by anti-human Fc, ECD as analyte, 25 C
Experimental: The binding kinetics of these antibodies for was assessed using a BIACORE™ 3000. Antibodies were captured on a CM5 biosensor chip to which an immobilized anti-human IgG (Fc specific) BIACORE™ (GE Healthcare cat# BR-1008-39) monoclonal antibody had been conjugated using supplied coupling buffer (9000 RU). Full-length human HER3 ECD concentrations were injected for 120s at a flow rate of 30 ul/min. Biosensor chips were regenerated as described in Example 1. Kinetics were determined by global fitting of data to the 1:1 Langmuir model using BIACORE™ Evaluation software. Analytical runs were carried out at 25° C. using FIBS-EP as the running buffer.
Buffer cycle and double referencing were performed as described in Example 1; and 5) Regenerate biosensor chips with BIACORE™ optimized buffers.

T1 sequence (P21860 20-643): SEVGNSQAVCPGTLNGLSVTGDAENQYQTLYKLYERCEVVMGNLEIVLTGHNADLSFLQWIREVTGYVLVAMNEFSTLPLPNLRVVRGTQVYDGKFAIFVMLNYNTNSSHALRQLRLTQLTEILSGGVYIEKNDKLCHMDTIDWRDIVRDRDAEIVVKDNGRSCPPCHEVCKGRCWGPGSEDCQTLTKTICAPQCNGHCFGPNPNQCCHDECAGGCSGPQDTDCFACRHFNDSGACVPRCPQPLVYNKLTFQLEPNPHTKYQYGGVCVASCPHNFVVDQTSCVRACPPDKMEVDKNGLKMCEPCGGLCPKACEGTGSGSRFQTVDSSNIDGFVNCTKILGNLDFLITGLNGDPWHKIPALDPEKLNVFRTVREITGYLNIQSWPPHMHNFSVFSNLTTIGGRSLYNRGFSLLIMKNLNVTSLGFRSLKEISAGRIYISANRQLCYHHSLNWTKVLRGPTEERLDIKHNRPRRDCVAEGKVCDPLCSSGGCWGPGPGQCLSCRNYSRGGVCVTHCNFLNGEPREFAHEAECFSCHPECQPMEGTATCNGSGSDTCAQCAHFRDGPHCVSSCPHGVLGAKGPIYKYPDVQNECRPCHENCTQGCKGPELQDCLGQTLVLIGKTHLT

B1: 1D9 H6L0 RR antibody (antibody, V domains shown)
VH: QVQLVQSGAEVKKPGASVKVSCKASGYTFTSYWMHWVRQAPGQGLEWMGVIDPSDGYSHYNQKFKGKVTLTVDTSISTAYMELSRLRSDDTAVYYCAGGLAGTLDYWGQGTTVTVSS
VL: DIQMTQSPSSLSASVGDRVTITCRSSQSIVHSSGNTYLQWYQQKPGKAPKLLIYKVSNRFSGVPSRFSGSGSGTDFTLTISSLQPEDFAVYYCFQGSHVPWTFGQGTKLEIKR
notes: Humanized RR variant
Kd: 7.51 nM
koff: 0.00366 s⁻¹
kon: 487000 M⁻¹ s⁻¹

B2: 1D9 H2L2 RR antibody (antibody, V domains shown)
VH: B1 VH with K67R, L70M, V72R
VL: B1 VL with Y41F
notes: Humanized RR variant
Kd: 13.4 nM
koff: 0.00444 s⁻¹
kon: 331000 M⁻¹ s⁻¹

B6: 1D9 H3L2 RR antibody (antibody, V domains shown)
VH: B1 VH with L70M, V72R, G98R
VL: B1 VL with Y41F
notes: Humanized RR variant
Kd: 59.4 nM
koff: 0.00316 s⁻¹
kon: 53300 M⁻¹ s⁻¹

B7: 15D5 H3L1 antibody (antibody, V domains shown)
VH: QVQLVQSGAEVKKPGASVKVSCKASGYTFTDYNMNWVRQAPGQGLEWMGGINPNYGTTVYNQKFKGKATLTVDQSISTAYMELSRLRSDDTAVYYCARMTTIVPFDYWGQGTTVTVSS
VL: DIQMTQSPSSLSASVGDRVTITCRASQDISNYLNWYQQKPGKAPKLLIYYTSTLHSGVPSRFSGSGSGTDYTFTISSLQPEDIATYYCQQGYTLPWTFGGGTKVEIKR
notes: Humanized 15D5 variant
Kd: 4.21 nM
koff: 0.000171 s⁻¹
kon: 40500 M⁻¹ s⁻¹

B10: 15D5 H4L3 (antibody, V domains shown)
VH: B7 VH with A68V, Q74T
VL: B7 VL with Y71F, F73L, I83F, G100Q, V104L
notes: To be rechecked
Kd: 24.7 nM
koff: 0.000935 s⁻¹
kon: 37900 M⁻¹ s⁻¹

B12: 15D5 H2L2 antibody (antibody, V domains shown)
VH: B7 VH with R38K, M48I
VL: B7 VL with F73L, I83F, G100Q, V104L
notes: Humanized 15D5 variant
Kd: 12.8 nM
koff: 0.00407 s⁻¹
kon: 317000 M⁻¹ s⁻¹

B13: 15D5 H1L3 antibody (antibody, V domains shown)
VH: B7 VH with V2F, T28S, R38K, M48I
VL: B7 VL with Y71F, F73L, I83F, G100Q, V104L
notes: Humanized 15D5 variant; also called 15D5 HIL3 antibody
Kd: 10 nM
koff: 0.000345 s⁻¹
kon: 34400 M⁻¹ s⁻¹

Continued by falling Kd, values first:

Kd: 8.72 nM
koff: 0.000367 s⁻¹
kon: 42100 M⁻¹ s⁻¹
B8: 15D5 H3L3 antibody (antibody, V domains shown)
VH: B7 VH
VL: B7 VL with Y71F, F73L, I83F, G100Q, V104L
notes: also called 15D5 H31.3 antibody

Kd: 8.7 nM
koff: 0.000365 s⁻¹
kon: 41900 M⁻¹ s⁻¹
B9: 15D5 H2L1 antibody (antibody, V domains shown)
VH: B7 VH with R38K, M48I
VL: B7 VL
notes: Humanized 15D5 variant

Kd: 7.89 nM
koff: 0.0041 s⁻¹
kon: 519000 M⁻¹ s⁻¹
B3: 1D9 H6L4 RR antibody (antibody, V domains shown)
VH: B1 VH
VL: B1 VL with Q3L

Kd: 7.19 nM
koff: 0.000267 s⁻¹
kon: 37100 M⁻¹ s⁻¹
B11: 15D5 H1L1 antibody (antibody, V domains shown)
VH: B7 VH with V2F, T28S, R38K, M48I
VL: B7 VL

Kd: 6.87 nM
koff: 0.00371 s⁻¹
kon: 540000 M⁻¹ s⁻¹
B5: 1D9 H6L5 RR antibody (antibody, V domains shown)
VH: B1 VH
VL: B1 VL with I2V, Q3L, Y41F, Y54S
notes: also called 1D9 116L5 RR antibody

Kd: 3.91 nM
koff: 0.00302 s⁻¹
kon: 773000 M⁻¹ s⁻¹
B4: 1D9 H6L3 RR antibody (antibody, V domains shown)
VH: B1 VH
VL: B1 VL with I2V
notes: Humanized RR variant
